Results as given in the supplement of paper PMC10567573.

B1: FAM50A (parent)
chain: KALEILRKDFSELRSAGVEQLMYI

Variants of: B1
Test: protein stability index of a GFP-peptide fusion (GPS, HEK-293T) (PSI 1-6); higher = more stable
Settings: c terminus: a fixed tail appended
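Further: lentivirally expressed fusions sorted by FACS into six bins by GFP to DsRed ratio, PSI derived from sequencing read proportions per bin multiplied by bin number.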

Protein stability index of substitutions, site by site:
Q20: D 3.81, K 4.59, M 1.54, P 3.58, L 2.75, V 3.63
K1: Y 3.42, V 1.18, P 2.04, N 1.86, M 3.33, E 1.88, T 1.91, A 3.07, D 1.28, Q 1.78
L13: A 3.08, I 2, H 5.15, K 1.53
E4: D 1.62, F 3.86, K 2.34, I 2.76, P 2.74, V 2.21
Y23: E 2.41, K 2.67, N 1.03, D 1.45
A2: C 4.79, K 1.75, P 1.95, R 3.76, W 2.73, V 1.49, F 2.4, N 1.04, L 1.15, S 2.96, H 1.48, D 3.3
I5: H 3.56, M 3.79, F 1.5, D 1.55, T 2.4, W 2.75, C 2.39, K 1.69, P 1.78, Y 2.52
L21: G 3, A 1.78, R 3.83, N 2.82, D 2.23, Y 3.12, P 3.17
M22: E 1.27, C 2.56, F 2.34, P 2.46, D 2.22, W 2.3, Q 2.37, I 1.97, T 2.22
S11: H 2.97, D 1.6, Y 1.21, E 2.51, I 3.09, R 2.76
F10: H 3.24, N 2.32, A 1.74, M 2.52, V 3.72
D9: M 2.56, Q 1.2, C 2.89, A 2.4, S 3.85, E 3.81, V 2.25, F 2.6, L 1.57
L3: P 2.77, N 1.5, D 1.73, R 2.52, K 2.58, C 3.15, T 1.84, M 2.02, H 1.57
L6: N 1.74, S 2.27, P 2.03, K 1.09, H 1.55, D 2, A 1.41, F 2.24, R 1.89, E 2.13, V 2.36, Q 2.51, T 1.85, G 1.57
K8: D 2.16, F 3.19, L 4.84, R 4.36, G 3.52, W 3.31, I 2.27, N 3.03
R7: T 2.91, F 3.25, I 2.18, H 2.58, A 1.25, P 2.28, E 1.54, L 3.87, S 2.59
E19: I 2.66, P 4.03, W 1.95, G 1.76, H 3.15, Q 2.95, N 2, L 2.18, F 2.9
R14: C 4.11, Y 1.69, E 1.68, W 2.68, S 2.28, F 3.71, L 4.57, K 1.51, N 1.95
G17: Y 2.95, D 1.95, A 4.16, H 1.88
E12: V 2.75, S 3.99, T 3.5, A 2.97, R 4, N 3.69, L 2.09, Q 3.76
A16: I 2.76, E 3.17, V 2.07
I24: S 1.54, K 1.94, Q 1.73, E 1.01, C 1.98, N 1.21
